Read-outs that look alike come from different tables or passages of the source.
What was measured:
[1] = molecular target: T1, cynomolgus monkey CD96, native, on primary cynomolgus monkey T cells (cynomolgus monkey, UniProt A0A2K5TWV6 22-569); assay: flow cytometry on activated cynomolgus monkey T cells, donor 2
T1 construct: whole, on cells
T1 sequence: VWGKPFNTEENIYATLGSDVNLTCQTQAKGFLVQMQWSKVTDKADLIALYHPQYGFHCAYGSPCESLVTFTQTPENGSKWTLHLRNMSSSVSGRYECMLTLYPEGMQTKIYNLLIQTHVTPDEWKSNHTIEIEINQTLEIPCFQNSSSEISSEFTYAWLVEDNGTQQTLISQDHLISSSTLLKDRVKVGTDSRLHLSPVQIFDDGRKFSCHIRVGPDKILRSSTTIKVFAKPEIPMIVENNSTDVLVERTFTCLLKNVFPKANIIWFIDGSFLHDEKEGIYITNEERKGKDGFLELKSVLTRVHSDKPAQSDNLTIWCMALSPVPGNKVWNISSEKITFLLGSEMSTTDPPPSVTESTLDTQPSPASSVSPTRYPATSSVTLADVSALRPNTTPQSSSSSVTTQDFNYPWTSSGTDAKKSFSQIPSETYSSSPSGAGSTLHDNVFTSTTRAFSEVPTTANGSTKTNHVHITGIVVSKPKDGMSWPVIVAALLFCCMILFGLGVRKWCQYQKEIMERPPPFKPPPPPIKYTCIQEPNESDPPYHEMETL

[2] = molecular target: T2, cynomolgus monkey CD96v2 expressed on cells (CHO cells; transiently transfected HEK cells) (cynomolgus monkey, UniProt A0A2K5TWV6 22-569); assay: flow cytometry on transiently transfected HEK cells (Cyno CD96v2)
T2 construct: the cell is named under assay; also called CHO-cyCD96; Cyno CD96v2
T2 sequence: T1 sequence

[3] = molecular target: T2, cynomolgus monkey CD96v2 expressed on …; assay: as above; remark: listed apart in the source
[4] = molecular target: T3, human CD96v1 on transiently transfected HEK cells (human, UniProt P40200 22-585); assay: flow cytometry on transiently transfected HEK cells (Human CD96v1)
T3 construct: whole, on cells
T3 sequence (looked up): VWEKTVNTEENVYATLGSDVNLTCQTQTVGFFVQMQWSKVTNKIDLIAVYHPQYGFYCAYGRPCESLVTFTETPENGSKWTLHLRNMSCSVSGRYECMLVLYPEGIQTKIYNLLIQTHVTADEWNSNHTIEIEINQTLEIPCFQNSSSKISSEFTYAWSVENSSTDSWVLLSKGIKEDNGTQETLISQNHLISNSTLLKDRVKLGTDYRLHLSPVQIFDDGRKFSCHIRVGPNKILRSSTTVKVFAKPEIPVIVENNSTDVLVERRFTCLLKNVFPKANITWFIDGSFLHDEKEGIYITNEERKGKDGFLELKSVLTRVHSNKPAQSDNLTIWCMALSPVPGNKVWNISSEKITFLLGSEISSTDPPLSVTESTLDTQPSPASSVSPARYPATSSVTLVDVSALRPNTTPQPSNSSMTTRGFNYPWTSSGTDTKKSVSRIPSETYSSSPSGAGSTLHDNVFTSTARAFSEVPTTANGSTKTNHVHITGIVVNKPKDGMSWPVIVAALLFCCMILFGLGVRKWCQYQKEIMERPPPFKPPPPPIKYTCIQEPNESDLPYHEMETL

[5] = molecular target: T4, human CD96v2 expressed on cells (CHO cells; transiently transfected HEK cells) (human, UniProt P40200-2 22-569); assay: flow cytometry on transiently transfected HEK cells (Human CD96v2)
T4 construct: whole, on cells; the cell is named under assay; also called CHO-huCD96; hCD96v2
T4 sequence (looked up): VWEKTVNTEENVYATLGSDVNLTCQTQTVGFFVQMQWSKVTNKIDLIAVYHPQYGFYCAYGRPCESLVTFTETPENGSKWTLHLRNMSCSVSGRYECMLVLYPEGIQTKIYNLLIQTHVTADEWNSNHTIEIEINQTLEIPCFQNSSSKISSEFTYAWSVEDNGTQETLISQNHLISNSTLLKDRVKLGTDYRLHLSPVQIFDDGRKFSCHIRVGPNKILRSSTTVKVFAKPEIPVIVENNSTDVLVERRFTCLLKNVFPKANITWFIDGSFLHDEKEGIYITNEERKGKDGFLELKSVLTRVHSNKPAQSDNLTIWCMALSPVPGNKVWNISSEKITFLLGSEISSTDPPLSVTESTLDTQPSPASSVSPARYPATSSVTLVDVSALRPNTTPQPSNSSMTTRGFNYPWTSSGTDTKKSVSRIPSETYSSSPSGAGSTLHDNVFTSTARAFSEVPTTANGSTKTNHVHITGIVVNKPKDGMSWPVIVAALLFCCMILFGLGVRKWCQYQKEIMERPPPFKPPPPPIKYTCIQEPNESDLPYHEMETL

[6] = molecular target: T4, human CD96v2 expressed on cells (CHO …); assay: flow cytometry on transiently transfected HEK cells; lower end of range, n = 3
[7] = molecular target: T2, cynomolgus monkey CD96v2 expressed on …; assay: as above
[8] = molecular target: T3, human CD96v1 on transiently transfected …; assay: as above
[9] = molecular target: T5, cynomolgus monkey CD96v1 on transiently transfected HEK cells (cynomolgus monkey); assay: as above
T5 construct: whole, on cells; also called Cyno CD96v1

[10] = molecular target: T6, blood derived cynomolgus monkey CD96v2 on transiently transfected HEK cells (cynomolgus monkey); assay: as above
T6 construct: also called Blood derived Cyno CD96v2

[11] = molecular target: T6, blood derived cynomolgus monkey CD96v2 …; assay: flow cytometry on transiently transfected HEK cells (Cyno blood derived CD96v2)
[12] = molecular target: T1, cynomolgus monkey CD96, native, on …; assay: flow cytometry on activated cynomolgus monkey CD3+ T cells; mean of 3 samples; cynomolgus monkey CD3+ T cells activated with anti-CD2/3/28 beads for 17 days; mean of 3 samples

EC50 (read off the curve) [1]: ~0.1 nM
EC50 (read off the curve) [2]: ~6 nM
EC50 (read off the curve) [3]: ~10 nM
EC50 (read off the curve) [4]: ~3 nM
EC50 (read off the curve) [5]: ~5 nM
EC50 [6]: 4.72 nM
EC50 [7]: 5.54 nM
EC50 [8]: 3.13 nM
EC50 [9]: 6.83 nM
EC50 [10]: 5.27 nM
EC50 (read off the curve) [11]: ~9 nM
EC50 [12]: 0.0766 nM
B1: 42Y073-86F08-66 (antibody)
heavy: not shown
light: DIQLTQSPSSLSASVGDRVTITCRASQSISSYLNWYQQKPGKAPKLLIYAASSLQSGVPSRFSGSGSGTDFTLTISSLQPEDFATYYCQQVLHTITFGGGTKVEIKRTVAAPSVFIFPPSDEQLKSGTASVVCLLNNFYPREAKVQWKVDNALQSGNSQESVTEQDSKDSTYSLSSTLTLSKADYEKHKVYACEVTHQGLSSPVTKSFNRGEC
notes: also called GSK 6097608; GSK6097608
